According to patent publication US20220064263A1 (published 2022):

T1: canine IL4 (canine, UniProt O77762 25-132, biotinylated (site not stated))
T1 construct: Biotinylated and captured on streptavidin sensor tips
T1 sequence (looked up): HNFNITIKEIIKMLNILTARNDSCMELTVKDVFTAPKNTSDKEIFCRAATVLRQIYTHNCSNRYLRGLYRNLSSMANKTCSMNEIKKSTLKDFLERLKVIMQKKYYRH


Key:
human C1q = molecular target: T2, human C1q (human, UniProt P02745 23-245; P02746 28-253; P02747 29-245); test: biosensor; fusion captured on IL4-bound tips, human C1q at 250 µg/mL
T2 construct: Bought protein complex; the three subunit chains come from general knowledge; also called C1q complex
T2 sequence (P02745 23-245 limits assumed, chain 1 of 3): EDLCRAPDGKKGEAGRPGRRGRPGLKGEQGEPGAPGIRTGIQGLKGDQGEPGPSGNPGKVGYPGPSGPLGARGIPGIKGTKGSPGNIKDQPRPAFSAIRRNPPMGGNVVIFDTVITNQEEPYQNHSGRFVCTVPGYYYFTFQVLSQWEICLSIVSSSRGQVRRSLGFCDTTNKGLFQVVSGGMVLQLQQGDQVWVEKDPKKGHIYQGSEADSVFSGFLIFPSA
T2 sequence (P02746 28-253 limits assumed, chain 2 of 3): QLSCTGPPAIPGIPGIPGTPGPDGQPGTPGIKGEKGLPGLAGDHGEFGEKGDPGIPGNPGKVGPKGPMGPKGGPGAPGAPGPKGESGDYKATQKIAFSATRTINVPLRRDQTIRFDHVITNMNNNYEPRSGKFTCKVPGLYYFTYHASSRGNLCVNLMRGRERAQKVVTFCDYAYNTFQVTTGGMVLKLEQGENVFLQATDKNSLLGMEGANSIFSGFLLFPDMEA
T2 sequence (P02747 29-245 limits assumed, chain 3 of 3): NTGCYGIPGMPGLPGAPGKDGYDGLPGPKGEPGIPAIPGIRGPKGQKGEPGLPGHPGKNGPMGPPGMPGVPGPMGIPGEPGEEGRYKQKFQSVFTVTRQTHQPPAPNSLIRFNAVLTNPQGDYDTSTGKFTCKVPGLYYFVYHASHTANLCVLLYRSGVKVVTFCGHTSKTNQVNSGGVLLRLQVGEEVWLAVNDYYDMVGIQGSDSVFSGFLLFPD
Description: (§1) A biosensor binding analysis was performed to determine the binding affinity of C1q to IL13R(ECD)-IL4R(ECD)-wild type canine IgG-B Fc (SEQ ID NO: 271) compared to IL13R(ECD)-IL4R(ECD)-variant canine IgG-B Fc (SEQ ID NO: 202). Briefly canine IL4 was biotinylated and captured to streptavidin sensor tips. Either IL13R(ECD)-IL4R(ECD)-wild type canine IgG-B Fc (25 μg/mL) or IL13R(ECD)-IL4R(ECD)-variant canine IgG-B Fc (25 μg/mL) was complexed to the IL4-bound biosensors. Subsequently, the complex was used to bind human C1q at 250 μg/mL (Catalog No. 204876-1MG; Sigma Aldrich). The ability of human C1q to bind either complex was measured. Reduced binding between human C1q and IL13R(ECD)-IL4R(ECD)-variant canine IgG-B Fc was observed when compared to IL13R(ECD)-IL4R(ECD)-wild type canine IgG-B Fc.

canine IL4 = molecular target: T1, canine IL4; test: biosensor; biotinylated canine IL4 on streptavidin tips, fusion at 25 µg/mL
Description: as §1

Row | Binder | binding result (human C1q) | binding result (canine IL4)
1 | IL13R(ECD)-IL4R(ECD)-wild type canine IgG-B Fc (Fc fusion, also called fusion protein comprising wild-type canine IgG-B Fc) TETQPPVTNLSVSVENLCTVIWTWDPPEGASPNCTLRYFSHFDNKQDKKIAPETHRSKEVPLNERICLQVGSQCSTNESDNPSILVEKCTPPPEGDPESAVTELQCVWHNLSYMKCTWLPGRNTSPDTNYTLYYWHSSLGKILQCEDIYREGQHIGCSFALTNLKDSSFEQHSVQIVVKDNAGKIRPSFNIVPLTSHVKPDPPHIKRLFFQNGNLYVQWKNPQNFYSRCLSYQVEVNNSQTETNDIFYVEEAKCQNSEFEGNLEGTICFMVPGVLPDTLNTVRIRVRTNKLCYEDDKLWSNWSQAMSIGENTDPTGGGSGSGSVKVLHEPSCFSDYISTSVCQWKMDHPTNCSAELRLSYQLDFMGSENHTCVPENREDSVCVCSMPIDDAVEADVYQLDLWAGQQLLWSGSFQPSKHVKPRTPGNLTVHPNISHTWLLMWTNPYPTENHLHSELTYMVNVSNDNDPEDFKVYNVTYMGPTLRLAASTLKSGASYSARVRAWAQTYNSTWSDWSPSTTWLNYYEPKRENGRVPRPPDCPKCPAPEMLGGPSVFIFPPKPKDTLLIARTPEVTCVVVDLDPEDPEVQISWFVDGKQMQTAKTQPREEQFNGTYRVVSVLPIGHQDWLKGKQFTCKVNNKALPSPIERTISKARGQAHQPSVYVLPPSREELSKNTVSLTCLIKDFFPPDIDVEWQSNGQQEPESKYRTTPPQLDEDGSYFLYSKLSVDKSRWQRGDTFICAVMHEALHNHYTQESLSHSPGK | binds | binds
2 | IL13R(ECD)-IL4R(ECD)-variant canine IgG-B Fc (Fc fusion, also called fusion protein comprising variant canine IgG-B Fc K(93)R) TETQPPVTNLSVSVENLCTVIWTWDPPEGASPNCTLRYFSHFDNKQDKKIAPETHRSKEVPLNERICLQVGSQCSTNESDNPSILVEKCTPPPEGDPESAVTELQCVWHNLSYMKCTWLPGRNTSPDTNYTLYYWHSSLGKILQCEDIYREGQHIGCSFALTNLKDSSFEQHSVQIVVKDNAGKIRPSFNIVPLTSHVKPDPPHIKRLFFQNGNLYVQWKNPQNFYSRCLSYQVEVNNSQTETNDIFYVEEAKCQNSEFEGNLEGTICFMVPGVLPDTLNTVRIRVRTNKLCYEDDKLWSNWSQAMSIGENTDPTGGGSGSGSVKVLHEPSCFSDYISTSVCQWKMDHPTNCSAELRLSYQLDFMGSENHTCVPENREDSVCVCSMPIDDAVEADVYQLDLWAGQQLLWSGSFQPSKHVKPRTPGNLTVHPNISHTWLLMWTNPYPTENHLHSELTYMVNVSNDNDPEDFKVYNVTYMGPTLRLAASTLKSGASYSARVRAWAQTYNSTWSDWSPSTTWLNYYEPKRENGRVPRPPDCPKCPAPEMLGGPSVFIFPPKPKDTLLIARTPEVTCVVVDLDPEDPEVQISWFVDGKQMQTAKTQPREEQFNGTYRVVSVLPIGHQDWLKGKQFTCRVNNKALPSPIERTISKARGQAHQPSVYVLPPSREELSKNTVSLTCLIKDFFPPDIDVEWQSNGQQEPESKYRTTPPQLDEDGSYFLYSKLSVDKSRWQRGDTFICAVMHEALHNHYTQESLSHSPGK | binds | binds
